The target in experiment [1] is T1, LILRB1-ECD-HIS (SinoBiological Cat #: 16014-H02H) (human, UniProt Q8NHL6 24-461).
T1 construct: Bought protein; also called monomeric antigen LILRB1-ECD-HIS; not shown: His tag
In words: BLI epitope binning (Gator).

Experiment [2] deals with T2, human LILRB2 expressed on cells (human, UniProt Q8N423 22-597).
T2 construct: In 293T cells it was expressed from pCMV3-LILRB2-GFP; also called CHO-LILRB2; Jurkat-LILRB2
In words: flow cytometry, CHO-LILRB2 cells.

The target in experiment [3] is T2, human LILRB2 expressed on cells. In words: flow cytometry, CHO-LILRB2 cells. The source holds these as a separate data set. On the technique in general: A flow cytometer gives signals particle by particle.
In experiment [4] the target is T3, LILRB2-ECD-HIS (SinoBiological Cat #: 14132-H02H) (human, UniProt Q8N423 22-460).
T3 construct: Bought protein; also called monomeric antigen LILRB2-ECD-HIS; not shown: His tag
The experiment in a line: BLI epitope binning (Gator), monomeric antigen.

Experiment [5] addresses T4, human LILRB1 expressed on cells (human, UniProt Q8NHL6 24-650).
T4 construct: In 293T cells it was expressed from pCMV3-LILRB1-GFP; also called CHO-LILRB1; Jurkat-LILRB1
In words: flow cytometry on 293T cells transiently expressing LILRB1, APC anti-human Fc; gMFI as fold to IgG staining.

For experiment [6], the target named is T5, LILRB3 expressed on cells (human, UniProt O75022 24-631).
T5 construct: whole, on cells; Expressed with a GFP tag from the bought plasmid; also called human LILRB3; CHO-LILRB3
In words: flow cytometry on 293T cells transiently expressing LILRB3, APC anti-human Fc; gMFI as fold to IgG staining.

The target of experiment [7] is T6, LILRB5 expressed on 293T cells (UniProt O75023 24-590, limits assumed).
T6 construct: whole, on cells; GFP-tagged, transient
In words: flow cytometry on 293T cells transiently expressing LILRB5, APC anti-human Fc; gMFI as fold to IgG staining.

The target in experiment [8] is T7, LILRA2 expressed on 293T cells (UniProt Q8N149 24-483, limits assumed).
T7 construct: whole, on cells; GFP-tagged, transient
In words: flow cytometry on 293T cells transiently expressing LILRA2, APC anti-human Fc; gMFI as fold to IgG staining.

For experiment [9], the target named is T8, LILRA3 expressed on 293T cells (UniProt Q8N6C8 24-439, limits assumed).
T8 construct: whole, on cells; GFP-tagged, transient
In words: flow cytometry on 293T cells transiently expressing LILRA3, APC anti-human Fc; gMFI as fold to IgG staining.

Experiment [10] deals with T9, LILRA6 expressed on cells (human, UniProt Q6PI73 24-481).
T9 construct: whole, on cells; GFP-tagged; also called human LILRA6; CHO-LILRA6
The experiment in a line: flow cytometry on 293T cells transiently expressing LILRA6, APC anti-human Fc; gMFI as fold to IgG staining.

Experiment [11] concerns the target T10, LILRA5 expressed on 293T cells (UniProt A6NI73 42-299, limits assumed).
T10 construct: whole, on cells; GFP-tagged, transient
The experiment in a line: flow cytometry on 293T cells transiently expressing LILRA5, antibody 5 µg/mL, APC anti-human Fc; gMFI as fold to IgG staining.

One may read the EC50 (read off the curve) as the concentration needed to bring the measured effect to its halfway point. A low value points to an effect from little substance. By EC50 is commonly meant the concentration giving half of the maximal effect.

T2 sequence (Q8N423 other isoform, or with tags, fused parts or gaps limits assumed): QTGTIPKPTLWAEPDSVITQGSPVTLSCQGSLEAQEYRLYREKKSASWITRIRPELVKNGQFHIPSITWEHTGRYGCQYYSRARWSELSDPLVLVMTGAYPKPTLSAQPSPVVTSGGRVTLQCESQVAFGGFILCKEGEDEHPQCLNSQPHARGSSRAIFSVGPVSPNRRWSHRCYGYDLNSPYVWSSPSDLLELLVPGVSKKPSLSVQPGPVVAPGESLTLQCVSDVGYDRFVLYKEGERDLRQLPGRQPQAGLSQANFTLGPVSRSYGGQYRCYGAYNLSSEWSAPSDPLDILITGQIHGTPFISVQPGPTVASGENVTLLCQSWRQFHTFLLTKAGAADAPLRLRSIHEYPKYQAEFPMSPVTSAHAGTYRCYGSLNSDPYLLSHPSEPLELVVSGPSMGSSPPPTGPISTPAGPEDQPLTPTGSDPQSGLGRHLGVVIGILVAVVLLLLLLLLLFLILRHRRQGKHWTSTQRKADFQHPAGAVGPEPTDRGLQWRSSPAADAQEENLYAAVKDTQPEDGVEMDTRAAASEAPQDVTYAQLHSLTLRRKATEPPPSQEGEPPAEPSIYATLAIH
T7 sequence (Q8N149 24-483 limits assumed): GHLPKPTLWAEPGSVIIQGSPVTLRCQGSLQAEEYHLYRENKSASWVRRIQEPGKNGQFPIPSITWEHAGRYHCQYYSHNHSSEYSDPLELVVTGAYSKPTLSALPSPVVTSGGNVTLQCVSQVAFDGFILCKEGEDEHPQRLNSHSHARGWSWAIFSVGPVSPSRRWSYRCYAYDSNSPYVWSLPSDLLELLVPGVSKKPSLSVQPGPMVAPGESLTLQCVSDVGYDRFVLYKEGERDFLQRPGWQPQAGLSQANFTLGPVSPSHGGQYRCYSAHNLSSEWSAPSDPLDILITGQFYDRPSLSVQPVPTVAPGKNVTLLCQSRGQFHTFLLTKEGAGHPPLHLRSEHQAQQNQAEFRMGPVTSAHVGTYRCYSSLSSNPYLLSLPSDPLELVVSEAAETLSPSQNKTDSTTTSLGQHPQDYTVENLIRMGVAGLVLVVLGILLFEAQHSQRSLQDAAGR
T4 sequence (Q8NHL6 other isoform, or with tags, fused parts or gaps limits assumed): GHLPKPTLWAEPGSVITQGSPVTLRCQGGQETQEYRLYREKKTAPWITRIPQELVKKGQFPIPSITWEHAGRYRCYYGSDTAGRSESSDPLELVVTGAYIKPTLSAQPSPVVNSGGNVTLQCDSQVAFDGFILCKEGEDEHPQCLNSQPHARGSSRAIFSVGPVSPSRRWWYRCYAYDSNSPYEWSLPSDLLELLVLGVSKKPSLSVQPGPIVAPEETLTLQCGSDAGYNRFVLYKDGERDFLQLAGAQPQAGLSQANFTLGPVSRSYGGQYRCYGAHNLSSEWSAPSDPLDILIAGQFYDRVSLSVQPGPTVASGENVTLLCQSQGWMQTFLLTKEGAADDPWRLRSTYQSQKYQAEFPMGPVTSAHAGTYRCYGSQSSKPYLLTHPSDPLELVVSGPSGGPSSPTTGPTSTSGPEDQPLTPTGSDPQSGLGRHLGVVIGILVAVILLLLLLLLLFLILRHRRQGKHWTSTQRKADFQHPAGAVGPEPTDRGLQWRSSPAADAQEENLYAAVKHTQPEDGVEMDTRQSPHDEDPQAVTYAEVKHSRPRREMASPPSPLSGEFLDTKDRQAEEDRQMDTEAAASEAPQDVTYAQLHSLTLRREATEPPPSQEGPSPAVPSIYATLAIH
T1 sequence (Q8NHL6 other isoform, or with tags, fused parts or gaps H02H H02H): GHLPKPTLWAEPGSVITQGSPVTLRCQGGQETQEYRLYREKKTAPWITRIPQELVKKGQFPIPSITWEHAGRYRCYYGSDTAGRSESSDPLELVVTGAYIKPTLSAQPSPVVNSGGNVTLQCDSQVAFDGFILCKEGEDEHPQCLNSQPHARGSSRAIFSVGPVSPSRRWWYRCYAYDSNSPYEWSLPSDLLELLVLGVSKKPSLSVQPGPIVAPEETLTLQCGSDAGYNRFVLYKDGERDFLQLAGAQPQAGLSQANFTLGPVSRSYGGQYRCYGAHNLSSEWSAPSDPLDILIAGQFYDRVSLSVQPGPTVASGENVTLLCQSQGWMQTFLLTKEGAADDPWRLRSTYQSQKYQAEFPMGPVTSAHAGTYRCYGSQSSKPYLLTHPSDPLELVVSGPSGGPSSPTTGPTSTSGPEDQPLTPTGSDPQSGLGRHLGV
T6 sequence (O75023 24-590 limits assumed): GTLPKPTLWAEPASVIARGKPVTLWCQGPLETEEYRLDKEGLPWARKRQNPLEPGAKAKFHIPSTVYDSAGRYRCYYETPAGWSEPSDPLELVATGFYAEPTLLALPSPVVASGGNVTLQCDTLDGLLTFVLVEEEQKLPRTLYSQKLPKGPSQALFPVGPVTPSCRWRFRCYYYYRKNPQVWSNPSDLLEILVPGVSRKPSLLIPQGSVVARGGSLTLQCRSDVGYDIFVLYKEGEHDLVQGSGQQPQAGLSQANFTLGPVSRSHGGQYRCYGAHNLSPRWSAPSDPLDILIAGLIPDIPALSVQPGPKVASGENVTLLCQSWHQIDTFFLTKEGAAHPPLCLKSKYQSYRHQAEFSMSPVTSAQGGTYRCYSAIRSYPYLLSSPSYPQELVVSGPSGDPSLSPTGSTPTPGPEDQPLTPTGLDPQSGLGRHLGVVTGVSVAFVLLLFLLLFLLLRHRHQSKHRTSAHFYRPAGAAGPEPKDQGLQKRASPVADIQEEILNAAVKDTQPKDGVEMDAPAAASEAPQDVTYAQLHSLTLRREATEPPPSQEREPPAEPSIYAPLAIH
T10 sequence (A6NI73 42-299 limits assumed): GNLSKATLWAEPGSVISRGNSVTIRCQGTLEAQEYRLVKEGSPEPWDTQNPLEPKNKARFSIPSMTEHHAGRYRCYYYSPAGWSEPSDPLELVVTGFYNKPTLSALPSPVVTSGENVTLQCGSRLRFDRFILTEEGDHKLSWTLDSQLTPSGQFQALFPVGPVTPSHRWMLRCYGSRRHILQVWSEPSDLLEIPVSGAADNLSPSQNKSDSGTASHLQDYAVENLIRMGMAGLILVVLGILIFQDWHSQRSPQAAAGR
T3 sequence (Q8N423 other isoform, or with tags, fused parts or gaps H02H H02H): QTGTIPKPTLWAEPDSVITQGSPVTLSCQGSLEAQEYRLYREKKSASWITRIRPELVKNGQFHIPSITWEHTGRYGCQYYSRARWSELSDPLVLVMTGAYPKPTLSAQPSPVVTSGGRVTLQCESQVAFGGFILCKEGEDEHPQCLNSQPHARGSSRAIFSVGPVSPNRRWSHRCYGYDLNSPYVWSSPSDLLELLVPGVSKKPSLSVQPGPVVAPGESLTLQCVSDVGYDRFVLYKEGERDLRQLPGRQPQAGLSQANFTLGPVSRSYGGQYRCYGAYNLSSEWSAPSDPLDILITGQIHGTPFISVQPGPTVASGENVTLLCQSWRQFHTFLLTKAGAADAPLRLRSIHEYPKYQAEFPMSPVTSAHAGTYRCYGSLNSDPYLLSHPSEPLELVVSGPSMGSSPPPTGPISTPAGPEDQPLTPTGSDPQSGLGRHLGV
T9 sequence (Q6PI73 24-481): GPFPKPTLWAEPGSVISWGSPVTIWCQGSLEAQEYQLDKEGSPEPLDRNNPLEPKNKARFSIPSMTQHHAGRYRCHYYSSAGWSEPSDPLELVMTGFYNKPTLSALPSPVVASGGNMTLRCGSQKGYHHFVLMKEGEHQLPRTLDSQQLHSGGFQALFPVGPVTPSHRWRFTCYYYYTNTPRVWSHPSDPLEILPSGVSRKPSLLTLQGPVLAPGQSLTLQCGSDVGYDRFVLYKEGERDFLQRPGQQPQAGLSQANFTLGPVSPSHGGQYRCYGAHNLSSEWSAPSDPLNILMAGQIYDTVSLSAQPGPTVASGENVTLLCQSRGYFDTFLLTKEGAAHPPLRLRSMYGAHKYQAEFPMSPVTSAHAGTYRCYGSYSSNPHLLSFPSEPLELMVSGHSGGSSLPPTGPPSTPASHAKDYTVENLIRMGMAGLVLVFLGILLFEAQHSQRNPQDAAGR
T8 sequence (Q8N6C8 24-439 limits assumed): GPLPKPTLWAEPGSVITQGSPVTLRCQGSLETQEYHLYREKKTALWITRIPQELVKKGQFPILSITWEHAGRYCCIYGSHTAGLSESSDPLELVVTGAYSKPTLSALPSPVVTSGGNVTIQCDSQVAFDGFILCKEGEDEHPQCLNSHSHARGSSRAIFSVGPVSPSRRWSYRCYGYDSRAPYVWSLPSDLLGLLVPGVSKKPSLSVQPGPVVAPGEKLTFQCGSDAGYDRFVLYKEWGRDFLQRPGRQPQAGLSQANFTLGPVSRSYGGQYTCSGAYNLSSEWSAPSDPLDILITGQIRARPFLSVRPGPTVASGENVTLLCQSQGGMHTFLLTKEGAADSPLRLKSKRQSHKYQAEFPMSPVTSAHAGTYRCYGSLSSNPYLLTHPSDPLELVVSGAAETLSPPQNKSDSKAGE

B1: Anti-LILRB2 antibody 1E1(QE) (antibody, human IgG4 S228P, lambda, V domains shown)
VH: EVQLQQWGAGLLKPSETLSLTCAVYGGSFSGYYWSWIRQPPGKGLEWIGEINHSGSTNYNPSLKSRVTISVDTSKNQFSLKLSSVTAADTAVYYCARLPTRWVTTRYFDLWGRGTLVTVSS
VL: ESVLTQPPSVSGAPGQRVTISCTGSSSNIGAGYDVHWYQQLPGTAPKLLIYGNSNRPSGVPDRFSVSKSGASASLAITGLQAEDEADYYCQSFDNSLSAYVFGGGTQLTVLG
Consider B1, for which the binding result in experiment [1] is “no binding”; in experiment [4], “binds”; in experiment [5], “no binding (tested: 5 µg/mL)”; in experiment [6], “no binding (tested: 5 µg/mL)”; in [7], “no binding (tested: 5 µg/mL)”; in [8] it was “no binding (tested: 5 µg/mL)”. For the same molecule, the binding result in [9] is “no binding (tested: 5 µg/mL)”; in experiment [10] it was “no binding (tested: 5 µg/mL)”; in experiment [11] it was “binds”. In addition, the “EC50 (read off the curve)” value in experiment [2] was roughly 0.04 µg/mL. The same molecule had an EC50 in [3] of 0.042 µg/mL. Also, the “gMFI (max)” value in experiment [3] was found to be 11800.

The values above are taken from US20250171534A1 (D2M BIOTHERAPEUTICS, published 2025).
